Measurements as given in patent US20250122303A1, “TREATMENT AND PREVENTION OF CANCER USING HER3 ANTIGEN-BINDING MOLECULES” (Hummingbird Bioscience Pte. Ltd., priority 2021, published 2025).

Assays:
[1] = test system: ACHN cell-line derived mouse model of renal cell carcinoma; assay: ACHN cell-line derived xenograft model; type: in vivo; conditions: IP biweekly 500 μg, 7 doses
Experimental: (§1) Tumor volumes were measured 3 times a week using a digital caliper and calculated using the formula [L ×W2/2]. Study End point was considered to have been reaches once the tumors of the control arm measured >1.5 cm in length.
The model was established by subcutaneous injection of 1×10^6 ACHN cells into the right flanks of female NCr nude mice (n=6 mice per treatment group).
10D1 was administered IP, biweekly at 500 μg per dose (for a total of 7 doses); a control treatment group received an equal volume of PBS.

FaDu cells = assay: Phosphoprotein Antibody Array; type: cell-based, human; conditions: 50 μg/ml 4 hrs, NRG 100 ng/ml
Experimental: FaDu cells were seeded in wells of a 6 well plate with 10% serum at 37° C., 5% CO2. After 16 hrs, cells were starved by culture overnight in 1% FBS cell culture medium. On the following day cells were treated with 50 μg/ml anti-HER3 antibody 10D1 for 4 hrs, followed by 15 min stimulation with NRG (100 ng/ml). Proteins were then extracted, quantified using standard Bradford protein assay, and incubated overnight with pre-blocked Phosphoprotein Antibody Array membrane (Ray Biotech) at 4° C. The membrane was then washed with washing buffer and incubated with detection antibody cocktail for 2 hrs at room temperature, followed by washing and incubation with HRP-Conjugated anti-IgG. After 2 hrs the membrane was washed and probed using the kit detection buffer. Images were captured with Syngene Gbox imaging system, the intensity of each dot/phosphoprotein was measured and percent inhibition was calculated by comparison with intensity measured for cells treated in the same way in the absence of the antibody.

mouse HER3 = molecular target: T1, mouse HER3 (Mus musculus, UniProt Q61526); assay: ELISA cross-reactivity, mouse HER3; type: binding
T1 construct: purchased Sino Biological Inc., China
T1 sequence (Q61526 20-1339): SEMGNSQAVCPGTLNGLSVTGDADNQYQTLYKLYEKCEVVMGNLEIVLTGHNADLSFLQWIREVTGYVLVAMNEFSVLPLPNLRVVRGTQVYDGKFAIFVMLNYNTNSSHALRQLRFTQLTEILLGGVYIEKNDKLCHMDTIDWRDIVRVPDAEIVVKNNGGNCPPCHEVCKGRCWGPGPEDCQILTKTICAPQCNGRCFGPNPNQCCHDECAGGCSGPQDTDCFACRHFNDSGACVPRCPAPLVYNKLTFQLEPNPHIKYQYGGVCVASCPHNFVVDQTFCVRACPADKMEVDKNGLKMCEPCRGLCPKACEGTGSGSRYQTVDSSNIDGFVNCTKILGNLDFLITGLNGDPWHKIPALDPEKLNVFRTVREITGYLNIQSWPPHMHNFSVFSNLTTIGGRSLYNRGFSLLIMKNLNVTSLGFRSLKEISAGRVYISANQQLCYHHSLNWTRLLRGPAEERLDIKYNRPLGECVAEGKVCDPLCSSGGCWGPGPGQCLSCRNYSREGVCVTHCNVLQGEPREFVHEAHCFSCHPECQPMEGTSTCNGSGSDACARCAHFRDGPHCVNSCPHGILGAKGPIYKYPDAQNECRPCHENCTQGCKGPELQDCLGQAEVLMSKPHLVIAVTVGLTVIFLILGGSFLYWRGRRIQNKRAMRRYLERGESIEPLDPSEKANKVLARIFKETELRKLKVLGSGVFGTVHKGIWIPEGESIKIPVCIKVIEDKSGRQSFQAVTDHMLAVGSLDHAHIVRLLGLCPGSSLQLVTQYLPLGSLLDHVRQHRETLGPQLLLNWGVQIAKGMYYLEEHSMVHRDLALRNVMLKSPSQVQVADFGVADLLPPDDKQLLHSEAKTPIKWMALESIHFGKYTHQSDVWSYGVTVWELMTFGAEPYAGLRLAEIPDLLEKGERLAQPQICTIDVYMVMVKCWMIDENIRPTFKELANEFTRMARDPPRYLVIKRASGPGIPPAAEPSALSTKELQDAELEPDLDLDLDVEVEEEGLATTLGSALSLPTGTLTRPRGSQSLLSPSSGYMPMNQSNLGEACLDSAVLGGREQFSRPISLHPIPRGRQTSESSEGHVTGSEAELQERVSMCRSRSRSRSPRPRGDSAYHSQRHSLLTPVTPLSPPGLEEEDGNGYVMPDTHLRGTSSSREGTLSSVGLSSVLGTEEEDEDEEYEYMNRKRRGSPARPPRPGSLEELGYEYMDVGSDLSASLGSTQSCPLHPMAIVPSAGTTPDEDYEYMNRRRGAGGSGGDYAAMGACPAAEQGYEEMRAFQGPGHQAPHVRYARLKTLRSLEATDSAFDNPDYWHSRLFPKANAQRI
Experimental: ELISAs were used to determine the binding specificity of the antibodies. The antibodies were analysed for binding to human HER3 polypeptide, as well as respective mouse, rat and monkey homologues of HER3 (Sino Biological Inc., China). The antibodies were also analysed for their ability to bind to human EGFR and human HER2 (Sino Biological Inc., China).
ELISAs were carried out according to standard protocols. Briefly, 96-well plates (Nunc, Denmark) were coated with 0.1 μg/ml of target polypeptide in phosphate-buffered saline (PBS) for 16 h at 4° C. After blocking for 1 h with 1% BSA in Tris buffer saline (TBS) at room temperature, the anti-HER3 antibody was serially diluted with the highest concentration being 10 μg/ml, and added to the plate. Post 1 h incubation at room temperature, plates were washed three times with TBS containing 0.05% Tween 20 (TBS-T) and were then incubated with a HRP-conjugated anti-His antibody (Life Technologies, Inc., USA) for 1 h at room temperature. After washing, plates were developed with colorimetric detection substrate 3,3′,5,5′-tetramethylbenzidine (Turbo-TMB; Pierce, USA) for 10 min. The reaction was stopped with 2M H2SO4, and OD was measured at 450 nm. […]

[2] = test system: N87 cell-line derived mouse gastric carcinoma model; assay: N87 cell-line derived xenograft model; type: in vivo; conditions: N87, IP biweekly 500 μg, 10 doses
Experimental: as §1
The model was established by subcutaneous injection of 1×10^6 N87 cells into the right flank (n=6 mice per treatment group).
10D1 was administered IP, biweekly at 500 μg per dose (for a total of 10 doses); a control treatment group received an equal volume of PBS.
Tumour cells are inserted with matrigel subcutaneously into the right flanks of female NCr nude mice.
Murine tumour efficacy studies were performed using cell-line derived xenograft (CDX) models in mice. Female NCr nude mice (5-8 weeks old, 21-29 g) were subcutaneously implanted with N87, A549, FaDu, OvCAR8 cells. Treatment was initiated when tumours reached approximately 100 to 200 mm^3. Vehicle (PBS) or therapeutic antibodies (25 mg/kg) were administered intraperitoneally (IP) at indicated time points (weekly FaDu and OvCAR8, twice weekly N87 and A549). Tumours were measured twice per week using a calliper and tumour volume (mm^3) was calculated. Each data point represents the mean tumour volume ±SEM (n=8 mice).

human HER3 = human HER3 (Homo sapiens, UniProt P21860); assay: Global affinity study, Bio-Layer Interferometry (Octet QK384); type: binding; conditions: IgG1 format, 25° C.; read-out: KD
Experimental: The anti-HER3 antibody clones in IgG1 format were analysed for binding affinity to human HER3. Bio-Layer Interferometry (BLI) experiments were performed using the Octet QK384 system (ForteBio). anti-Human IgG Capture (AHC) Octet sensor tips (Pall ForteBio, USA) were used to anti-HER3 antibodies (25 nM). All measurements were performed at 25° C. with agitation at 1000 rpm. Kinetic measurements for antigen binding were performed by loading His-tagged human HER3 antigens at different concentrations for 120 s, followed by a 120 s dissociation time by transferring the biosensors into assay buffer containing wells. Sensograms were referenced for buffer effects and then fitted using the Octet QK384 user software (Pall ForteBio, USA). Kinetic responses were subjected to a global fitting using a one site binding model to obtain values for association (Kon), dissociation (Koff) rate constants and the equilibrium dissociation constant (KD). Only curves that could be reliably fitted with the software (R^2>0.90) were included in the analysis.
Bio-Layer Interferometry (BLI) experiments were performed using the Octet QK384 system (ForteBio). […] Binding was detected using titrated HIS-tagged human HER3 in steps of baseline (60 s), loading (120 s), baseline2 (60 s), association (120 s), dissociation (FcA 120 s, FcB 600 s) and regeneration (15 s). Sensorgrams were analysed as described in Example 3.3. […]

B1: 10D1: anti-HER3 antibody clone, VH SEQ ID NO:24, VL SEQ ID NO:74; [1] of Example 2.2 (antibody, V domains shown)
VH: DVQLQESGPDLVKPSQSLSLTCTVTGYSITSGYSWHWIRQFPGNKLEWMGSIHYSGGTNYNPSLKSRISITRDTSKNQFFLQLNSVTTEDTATYFCARMTTAPRYPFDYWGQGTTLTVSS
VL: DIVMTQSQKFMSTSVGDRVSVTCKASQIVGSNVAWYQQKPGQSPKPLIYSASYRYSGVPDRFTASGSGTDFTLTITNVQSEDLAEYFCQQYSSHPLTFGAGTKLELK
- inhibition of tumor growth [1]: ~61%
- intracellular signalling pathways affected (FaDu cells): inhibit P13K/AKT/mTOR and MAPK signalling
- binding / cross-reactivity with mouse HER3 (mouse HER3): substantial cross-reactivity
- inhibition of tumor growth [2]: ~76%
- Kd (human HER3): 9.58 nM
